“And” between values parts separate entries of the source, which are not always exact repeats. Identical values can stand only once.
Tests used:
[1] = biological target: T1, Human DDR1 extracellular domain (human, UniProt Q08345 21-417); experiment: Biacore, DDR1 extracellular domain; KD in mass units (ng/mL), same fit as the 1.36 nM of r7c2
T1 construct: extracellular domain
Method: (§1) First, 9H-1 was tested for its affinity to DDR1 protein from human, mouse, rat, and cynomolgus monkey.

[2] = biological target: T2, Mouse DDR1 extracellular domain (mouse, UniProt Q03146 22-415); experiment: Biacore, DDR1 extracellular domain
T2 construct: extracellular domain
T2 sequence (looked up): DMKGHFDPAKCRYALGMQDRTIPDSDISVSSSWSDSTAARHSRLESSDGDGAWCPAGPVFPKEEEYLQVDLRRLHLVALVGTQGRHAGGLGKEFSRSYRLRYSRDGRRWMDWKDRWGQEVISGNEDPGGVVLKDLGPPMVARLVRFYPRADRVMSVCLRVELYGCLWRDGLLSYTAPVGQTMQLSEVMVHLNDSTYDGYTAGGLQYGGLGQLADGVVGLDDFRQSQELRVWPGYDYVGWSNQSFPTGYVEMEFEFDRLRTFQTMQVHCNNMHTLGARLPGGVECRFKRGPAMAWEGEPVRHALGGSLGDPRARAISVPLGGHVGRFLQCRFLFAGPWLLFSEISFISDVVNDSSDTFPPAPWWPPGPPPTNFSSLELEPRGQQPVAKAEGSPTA
Method: as §1

[3] = biological target: T3, Rat DDR1 extracellular domain (rat, UniProt Q63474 22-414); experiment: Biacore, DDR1 extracellular domain
T3 construct: extracellular domain
T3 sequence (looked up): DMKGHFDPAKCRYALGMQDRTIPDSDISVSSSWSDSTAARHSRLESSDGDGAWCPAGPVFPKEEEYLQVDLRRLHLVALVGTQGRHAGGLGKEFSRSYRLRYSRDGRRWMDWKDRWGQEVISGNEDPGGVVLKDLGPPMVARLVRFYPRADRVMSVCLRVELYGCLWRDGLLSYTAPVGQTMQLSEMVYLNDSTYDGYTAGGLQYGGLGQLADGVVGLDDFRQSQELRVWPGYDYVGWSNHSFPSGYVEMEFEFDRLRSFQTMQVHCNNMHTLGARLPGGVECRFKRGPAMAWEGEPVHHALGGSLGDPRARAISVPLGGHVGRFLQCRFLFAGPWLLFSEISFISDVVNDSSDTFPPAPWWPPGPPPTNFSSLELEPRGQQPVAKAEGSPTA
Method: as §1

[4] = biological target: T4, Cynomolgus monkey DDR1 extracellular domain (cynomolgus monkey, UniProt A0A2K5V739 47-443); experiment: Biacore, DDR1 extracellular domain
T4 construct: extracellular domain; also called Cyno DDR1
T4 sequence: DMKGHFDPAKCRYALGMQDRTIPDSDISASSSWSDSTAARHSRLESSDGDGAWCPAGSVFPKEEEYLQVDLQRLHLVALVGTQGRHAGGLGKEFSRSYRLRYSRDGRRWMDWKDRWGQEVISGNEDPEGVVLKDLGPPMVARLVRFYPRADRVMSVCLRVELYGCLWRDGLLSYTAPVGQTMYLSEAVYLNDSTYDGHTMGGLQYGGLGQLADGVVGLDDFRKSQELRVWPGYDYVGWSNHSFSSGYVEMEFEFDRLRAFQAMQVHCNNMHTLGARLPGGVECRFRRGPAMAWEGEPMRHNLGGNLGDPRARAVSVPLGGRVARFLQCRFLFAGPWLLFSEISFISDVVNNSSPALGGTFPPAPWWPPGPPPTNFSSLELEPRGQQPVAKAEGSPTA
Method: as §1

[5] = biological target: T1, Human DDR1 extracellular domain; experiment: Biacore, DDR1 extracellular domain
Method: as §1

Kd [1]: 0.204 µg/mL
Kd [2]: 16.9 nM and 2.54 µg/mL
koff [2]: 0.00397 s⁻¹
kon [2]: 235000 M⁻¹ s⁻¹
t1/2 [2]: 174 s
Kd [3]: 2.28 nM and 0.342 µg/mL
koff [3]: 0.000455 s⁻¹
kon [3]: 199000 M⁻¹ s⁻¹
t1/2 [3]: 1520 s
Kd [4]: 1.3 nM and 0.195 µg/mL
koff [4]: 0.00015 s⁻¹
kon [4]: 116000 M⁻¹ s⁻¹
t1/2 [4]: 1.28 h
Kd [5]: 1.36 nM
koff [5]: 0.000181 s⁻¹
kon [5]: 133000 M⁻¹ s⁻¹
t1/2 [5]: 1.07 h
B1: 9H-1 (humanized DDR1-9, WT IgG1 Fc) (antibody, V domains shown)
VH: QVQLVESGGRVVQPGRSLRLSCTASGFSLNRYYMLWVRQAPGKGLEWIGTISYGDTTYYASWAKGRFTISRDNSKNTLYLQMNSLRAEDTAVYYCARADTGDNGYLGLQLWGQGTLVTVSS
VL: DIQMTQSPSSVSASVGDRVTITCQASQSIGSVLAWYQQKPGKAPKLLISGVFDLASGVPSRFSGSGSGTDFTLTISSLQPEDFATYYCQYIPYGSSPFGGGTKVEIKR
notes: In some embodiments the heavy chain lacks the terminal lysine; also called PRTH-101; humanized DDR1-9 (9H-1)_1 WT IgG1 Fc

From patent publication US20260199458A1 (INCENDIA THERAPEUTICS, published 2026)
